Data published in the supplement of paper PMC6757056.
± gives the standard deviation of the averaged measurements.

B1: library; a variant is named by its letters at N, in order (parent)
chain: GCUGUCACCGGUGCUUGGUACGUUAUAUUCAGCCGGUCUGAUGAGUCUNNNNNNAGACGAAACAGC

Legend:
(6R,S)-folinic acid [1] = variants of: B1; test: normalized RNA/DNA level without ligand (relative to sTRSVctl = 100) (log10 (% of sTRSVctl)); HEK293T overexpressing SLC46A1; higher = less ribozyme self-cleavage, higher mRNA level; conditions: without (6R,S)-folinic acid; ligand present: no
Method in brief: (§1)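 Ribozyme switch library plasmids with mCherry reporters (eGFP in certain ligand experiments) went into HEK293T cells at 4 µg per 6-well well. Where ligand was used, it was applied 1 h before transfection, and total RNA was extracted with EDTA 72 h later for reverse transcription, amplification, barcoding and sequencing. RNA level is the RNA-to-DNA read ratio normalized to a spiked-in non-cleaving sequence or to the leading sequences, then scaled and log-transformed. Scaling was ×100 with log10, the leading set comprised 25 sequences, and the cutoff was ≥100 DNA reads.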

(6R,S)-folinic acid [2] = variants of: B1; test: normalized RNA/DNA level with ligand (relative to sTRSVctl = 100) (log10 (% of sTRSVctl)); HEK293T overexpressing SLC46A1; ligand concentration (+) RNA-Seq: 6 mM; higher = less ribozyme self-cleavage, higher mRNA level; conditions: with (6R,S)-folinic acid; ligand present: yes
Method in brief: as §1

Variant | normalized RNA/DNA level without ligand (log10) ((6R,S)-folinic acid [1]) | normalized RNA/DNA level with ligand (log10) ((6R,S)-folinic acid [2])
GCUGUCACCGGUGCUUGGUACGUUAUAUUCAGCCGGUCUGAUGAGUCUAGCGCUAGACGAAACAGC | 2.027 ± 0.0049 | 2.01 ± 0.026
GCUGUCACCGGUGCUUGGUACGUUAUAUUCAGCCGGUCUGAUGAGUCUAGCGCGAGACGAAACAGC | 1.972 ± 0.019 | 2 ± 0.037
GCUGUCACCGGUGCUUGGUACGUUAUAUUCAGCCGGUCUGAUGAGUCUAGCGCCAGACGAAACAGC | 2.058 ± 0.017 | 2.03 ± 0.037
GCUGUCACCGGUGCUUGGUACGUUAUAUUCAGCCGGUCUGAUGAGUCUUGCGGAAGACGAAACAGC | 1.886 ± 0.0066 | 2.01 ± 0.04
GCUGUCACCGGUGCUUGGUACGUUAUAUUCAGCCGGUCUGAUGAGUCUGGCGCGAGACGAAACAGC | 2.085 ± 0.011 | 2.06 ± 0.05
GCUGUCACCGGUGCUUGGUACGUUAUAUUCAGCCGGUCUGAUGAGUCUGGCGCUAGACGAAACAGC | 2.113 ± 0.014 | 2.1 ± 0.057
GCUGUCACCGGUGCUUGGUACGUUAUAUUCAGCCGGUCUGAUGAGUCUGGCGCAAGACGAAACAGC | 2.06 ± 0.0043 | 2.051 ± 0.019
GCUGUCACCGGUGCUUGGUACGUUAUAUUCAGCCGGUCUGAUGAGUCUGGCGCCAGACGAAACAGC | 2.093 ± 0.017 | 2.07 ± 0.023
GCUGUCACCGGUGCUUGGUACGUUAUAUUCAGCCGGUCUGAUGAGUCUCGCGGAAGACGAAACAGC | 2.052 ± 0.0026 | 2.05 ± 0.03
GCUGUCACCGGUGCUUGGUACGUUAUAUUCAGCCGGUCUGAUGAGUCUCGCGGCAGACGAAACAGC | 2.11 ± 0.023 | 2.13 ± 0.047
GCUGUCACCGGUGCUUGGUACGUUAUAUUCAGCCGGUCUGAUGAGUCUAGCGGAAGACGAAACAGC | 2.024 ± 0.0064 | 2.024 ± 0.01
GCUGUCACCGGUGCUUGGUACGUUAUAUUCAGCCGGUCUGAUGAGUCUCGCGAUAGACGAAACAGC | 1.939 ± 0.0057 | 1.97 ± 0.041
GCUGUCACCGGUGCUUGGUACGUUAUAUUCAGCCGGUCUGAUGAGUCUCGCGAAAGACGAAACAGC | 1.9769 ± 0.0003 | 2.01 ± 0.031
GCUGUCACCGGUGCUUGGUACGUUAUAUUCAGCCGGUCUGAUGAGUCUCGCGAGAGACGAAACAGC | 1.98 ± 0.039 | 2 ± 0.037
GCUGUCACCGGUGCUUGGUACGUUAUAUUCAGCCGGUCUGAUGAGUCUCGCGACAGACGAAACAGC | 2.0427 ± 0.0011 | 2.04 ± 0.029
GCUGUCACCGGUGCUUGGUACGUUAUAUUCAGCCGGUCUGAUGAGUCUGGCCUUAGACGAAACAGC | 2.108 ± 0.0078 | 2.09 ± 0.042
GCUGUCACCGGUGCUUGGUACGUUAUAUUCAGCCGGUCUGAUGAGUCUGGCCUCAGACGAAACAGC | 2.044 ± 0.018 | 2.06 ± 0.025
GCUGUCACCGGUGCUUGGUACGUUAUAUUCAGCCGGUCUGAUGAGUCUGGCCUGAGACGAAACAGC | 2.064 ± 0.015 | 2.03 ± 0.085
GCUGUCACCGGUGCUUGGUACGUUAUAUUCAGCCGGUCUGAUGAGUCUAGCGAAAGACGAAACAGC | 1.96 ± 0.014 | 2.01 ± 0.03
GCUGUCACCGGUGCUUGGUACGUUAUAUUCAGCCGGUCUGAUGAGUCUAGCGAGAGACGAAACAGC | 1.886 ± 0.014 | 1.998 ± 0.012
